From article PMC10746227

B1: WalR-SmBIT (native WalR) [S. aureus] / WalK-LgBIT (native WalK) [S. aureus] (parent)
chain 1: MARKVVVVDDEKPIADILEFNLKKEGYDVYCAYDGNDAVDLIYEEEPDIVLLDIMLPGRDGMEVCREVRKKYEMPIIMLTAKDSEIDKVLGLELGADDYVTKPFSTRELIARVKANLRRHYSQPAQDTGNVTNEITIKDIVIYPDAYSIKKRGEDIELTHREFELFHYLSKHMGQVMTREHLLQTVWGYDYFGDVRTVDVTIRRLREKIEDDPSHPEYIVTRRGVGYFLQQHE
chain 2: MKWLKQLQSLHTKLVIVYVLLIIIGMQIIGLYFTNNLEKELLDNFKKNITQYAKQLEISIEKVYDEKGSVNAQKDIQNLLSEYANRQEIGEIRFIDKDQIIIATTKQSNRSLINQKANDSSVQKALSLGQSNDHLILKDYGGGKDRVWVYNIPVKVDKKVIGNIYIESKINDVYNQLNNINQIFIVGTAISLLITVILGFFIARTITKPITDMRNQTVEMSRGNYTQRVKIYGNDEIGELALAFNNLSKRVQEAQANTESEKRRLDSVITHMSDGIIATDRRGRIRIVNDMALKMLGMAKEDIIGYYMLSVLSLEDEFKLEEIQENNDSFLLDLNEEEGLIARVNFSTIVQETGFVTGYIAVLHDVTEQQQVERERREFVANVSHELRTPLTSMNSYIEALEEGAWKDEELAPQFLSVTREETERMIRLVNDLLQLSKMDNESDQINKEIIDFNMFINKIINRHEMSAKDTTFIRDIPKKTIFTEFDPDKMTQVFDNVITNAMKYSRGDKRVEFHVKQNPLYNRMTIRIKDNGIGIPINKVDKIFDRFYRVDKARTRKMGGTGLGLAISKEIVEAHNGRIWANSVEGQGTSIFITLPCEVIEDGDWDE

Variants of: B1
Experiment: split luciferase (SmBIT/LgBIT) interaction assay in S. aureus
Settings: with WalK-LgBIT (native WalK) [S. aureus]; maximum of the RLU curve, mutant peak at about 170 min, Wt peak at about 120 min; growth in LB in NRS384 Wt; sub-panel labelled D53A/T101A; parent: 8e+03; read off a plot

Variant | response
chain 1 D53A T101A | 8000 RLU

Same assay, conditions: with WalR-SmBIT (native WalR) [S. aureus]; maximum of the RLU curve, mutant peak at about 110 min, Wt peak at about 130 min; growth in LB in NRS384 Wt; sub-panel labelled Y32C; parent: 1.8e+04; read off a plot

Variant | response
chain 2 Y32C | 55000 RLU

Same assay, conditions: with WalR-SmBIT (native WalR) [S. aureus]; maximum of the RLU curve, mutant peak at about 170 min, Wt peak at about 120 min; growth in LB in NRS384 Wt; sub-panel labelled H385A; parent: 8e+03; read off a plot

Variant | response
chain 2 H385A | 20000 RLU

Same assay, conditions: with WalK-LgBIT (native WalK) [S. aureus]; maximum of the RLU curve, mutant peak at about 140 min, Wt peak at about 125 min; growth in LB in NRS384 Wt; sub-panel labelled D53E; parent: 8e+03; read off a plot

Variant | response
chain 1 D53E | 150000 RLU

Same assay, conditions: with WalK-LgBIT (native WalK) [S. aureus]; maximum of the RLU curve, mutant peak at about 140 min, Wt peak at about 125 min; growth in LB in NRS384 Wt; sub-panel labelled D53A; parent: 8.5e+03; read off a plot

Variant | response
chain 1 D53A | 17000 RLU

Same assay, conditions: with WalR-SmBIT (native WalR) [S. aureus]; maximum of the RLU curve, mutant peak at about 125 min, Wt peak at about 120 min; growth in LB in NRS384 Wt; sub-panel labelled T389A; parent: 8e+03; read off a plot

Variant | response
chain 2 T389A | 60000 RLU

Same assay, conditions: with WalR-SmBIT (native WalR) [S. aureus]; maximum of the RLU curve, mutant peak at about 165 min, Wt peak at about 120 min; growth in LB in NRS384 Wt; sub-panel labelled G223D; parent: 8e+03; read off a plot

Variant | response
chain 2 G223D | 19000 RLU
